Data taken from article PMC8336524, “Yeast Bromodomain Factor 1 and Its Human Homolog TAF1 Play Conserved Roles in Promoting Homologous Recombination” (Advanced Science, 2021).

Experiments:
[1] = molecular target: acetylated H4 peptide (1–22 aa) (UniProt P02309); assay: ITC; protein (≈50 µM DBD or 2YF‐DBD, ≈20 µM TAF1‐DBD) titrated with H4 peptide (≈1 mM or 0.5 mM) at 25 °C; 100 mM NaCl, 50 mM Tris‐HCl pH 7.5; 19 injections; One Set of Sites model
6xHis‐Rfa1 = molecular target: T1, 6xHis‐Rfa1 (yeast, UniProt P22336 1-621); assay: pull-down; GST or GST fusion proteins immobilized on GSH‐sepharose beads, incubated with His‐tagged proteins at 4 °C for 4 h; wash 20 mM Tris–HCl pH 7.4, 200 mM NaCl, 0.5 mM EDTA; Western blot with anti‐His antibody; details: both partners purified
T1 construct: Rfa1, subunit of Replication Protein A (RPA), yeast; also called RPA (in the text on the truncations); source: E. coli (BL21), pET30a(+)
T1 sequence (P22336 whole entry, the tested form may be a part): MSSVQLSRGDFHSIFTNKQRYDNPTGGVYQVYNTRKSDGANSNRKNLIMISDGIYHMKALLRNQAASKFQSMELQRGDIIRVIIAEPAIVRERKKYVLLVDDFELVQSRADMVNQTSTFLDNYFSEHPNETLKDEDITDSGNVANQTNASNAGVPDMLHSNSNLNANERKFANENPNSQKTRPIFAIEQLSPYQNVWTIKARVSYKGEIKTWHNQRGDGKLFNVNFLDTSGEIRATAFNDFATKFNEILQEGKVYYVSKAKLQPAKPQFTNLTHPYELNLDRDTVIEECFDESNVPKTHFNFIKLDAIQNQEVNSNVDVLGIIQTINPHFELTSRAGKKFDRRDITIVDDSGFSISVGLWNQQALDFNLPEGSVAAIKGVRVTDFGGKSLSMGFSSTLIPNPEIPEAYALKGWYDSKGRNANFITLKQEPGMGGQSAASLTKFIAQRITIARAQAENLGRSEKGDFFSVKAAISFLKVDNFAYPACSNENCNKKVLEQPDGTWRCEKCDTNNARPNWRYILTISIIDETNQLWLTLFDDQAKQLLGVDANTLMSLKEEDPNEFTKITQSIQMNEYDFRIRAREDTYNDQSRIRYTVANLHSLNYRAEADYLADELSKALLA

Molecule	Kd [1]	binding result (6xHis‐Rfa1)
TAF1‐DBD used for ITC (domain or fragment)	5 µM	–
GST‐Bdf1 residues 1–317 (domain or fragment, yeast, UniProt P35817 1-317, looked up, source: E. coli (BL21), pGEX4T3; immobilized onto GSH‐sepharose beads) MTDITPVQNDVDVNGNNVNDDVSSNLKRPIDQGDPSNGLAEEENPANNQLHLKKARLDGDALTSSPAGLAENGIEGATLAANGENGYNATGSGAEDEQQGLKKEEGGQGTKQEDLDENSKQELPMEVPKEPAPAPPPEPDMNNLPQNPIPKHQQKHALLAIKAVKRLKDARPFLQPVDPVKLDIPFYFNYIKRPMDLSTIERKLNVGAYEVPEQITEDFNLMVNNSIKFNGPNAGISQMARNIQASFEKHMLNMPAKDAPPVIAKGRRSSAQEDAPIVIRRAQTHNGRPKRTIHPPKSKDIYPYESKKPKSKRLQQA	–	binds

Results, then the molecule that gave them:

Kd [1]	binding result (6xHis‐Rfa1)	Molecule
6 µM	–	DBD of Bdf1 used for ITC (domain or fragment)
–	binds	GST‐Bdf1 residues 1–295 (domain or fragment, yeast, UniProt P35817 1-295, looked up, source: E. coli (BL21), pGEX4T3; immobilized onto GSH‐sepharose beads) MTDITPVQNDVDVNGNNVNDDVSSNLKRPIDQGDPSNGLAEEENPANNQLHLKKARLDGDALTSSPAGLAENGIEGATLAANGENGYNATGSGAEDEQQGLKKEEGGQGTKQEDLDENSKQELPMEVPKEPAPAPPPEPDMNNLPQNPIPKHQQKHALLAIKAVKRLKDARPFLQPVDPVKLDIPFYFNYIKRPMDLSTIERKLNVGAYEVPEQITEDFNLMVNNSIKFNGPNAGISQMARNIQASFEKHMLNMPAKDAPPVIAKGRRSSAQEDAPIVIRRAQTHNGRPKRTIHP
